Experimental data as given in US7998923B2, “Bioactivation of particles” (The Regents of the University of California, priority 2002, dated 2011).
Square brackets hold non-standard residues; d marks the D form. Cha = N[C@@H](CC1CCCCC1)C(=O)O

Assay: solubilization assay of CdSe/ZnS quantum dots with bioactivation peptides
Assay type: physicochemical
Conditions: peptide coated CdSe/ZnS quantum dots, diluted from DMSO
Protocol: A non-limiting example of the MRP is Cha-C-C-Cha-C-C-Cha-C-C-Cha (SEQ. ID. NO. 1) with Cha standing for Cyclohexyl alanine and C for cysteine. […] All synthesis used N-Boc or F-moc protecting groups and sequences may be N-acetylated and/or C-carboxylated. The bioactivation peptides are added directly onto the particles and allowed to form a good dispersion of the quantum dots in DMSO and subsequently yielded stable and highly monodisperse dilutions of the nanocrystals in water and buffer. Stability in water and buffers is enhanced by the addition of a hydrophilic sequence at the N-terminus of the Cha-C-C-Cha . . . sequence. The following sequence was used: G-S-E-S-G-G-S-E-S-G-Cha-C-C-Cha-C-C-Cha-C-C-Cha (SEQ. ID. NO. 2).
This substitution led to aggregations of particles during the reaction and thus lack of migration on electrophoresis gels. Similarly replacing the cysteines in the binding clusters with alanine gave unstable particles that flocculate rapidly after solubilization in aqueous solvents. […]

NH2-G-S-E-S-G-G-S-E-S-G-Cha-C-C-Cha-C-C-Cha-C-C-Cha-Carboxamide (H-GSESGGSESG[Cha]CC[Cha]CC[Cha]CC[Cha]-NH2; cysteine pairing not given here) [ChaCha E swimmer]
stability in water and buffers: enhanced
